Data as given in patent publication US11382907B2, “Methods and compositions for treating aging-associated impairments using CCR3-inhibitors” (Alkahest, Inc., priority 2017, dated 2022).

Key:
Type in all cases: in vivo
[1] = tested on: two-month-old C57Bl/6 mice treated with rmCCL11; experiment: Barnes maze test in young mice given recombinant mouse CCL11; conditions: 2-month-old mice; rmCCL11 i.p.; Compound 1 30 mg/kg p.o. b.i.d.
Excerpt: A modified Barnes maze was used to assess spatial working/episodic like learning and memory. The Barnes maze apparatus consists of a 122 cm diameter circular platform with 40 escape holes, each with a diameter of 5 cm placed along three rings of varying distances from the center of the platform. An escape box is attached to one of the holes and all holes are left uncovered. Bright lights and a fan are trained on the maze to provide adverse stimuli to encourage escape. Visual cues are placed on all four sides of the maze. Mice are given a series of 4 or 5 trials with inter-trial intervals of approximately 10 min, and the maximum duration of each trial is 90 or 120 sec. For each trial, mice are placed in the center of the maze. After 10 seconds, mice are allowed to explore, and the trial is ended if the mouse has found and entered an escape box before the end of the trial. Mice that cannot find the escape box are led to it and allowed to enter and given 30 sec to remain before being returned to its home cage. Training is done for 4 days. Data that is recorded and analyzed include velocity, escape latency, and distance moved.
(§1) Two-month-old C57Bl/6 mice were dosed with either vehicle control or Compound 1 by oral gavage twice daily for 18 days. During the last week of treatment, mice were subjected to behavior testing prior to perfusion on the last day of treatment. […]

[2] = tested on: two-month-old C57Bl/6 mice treated with rmCCL11; experiment: Open Field test in young mice given recombinant mouse CCL11; conditions: 2-month-old mice; rmCCL11 i.p.; Compound 1 30 mg/kg p.o. b.i.d., 2 weeks
Description: Open Field is used to evaluate general locomotor activity and exploratory behavior in a novel environment. Mice are brought to the experimental room for at least 30 min for acclimation to the experimental room conditions (dim lighting) prior to testing. The testing arena consists of a 50 cm×50 cm square arena. Mice are placed in the center of an arena and tracked for 15 minutes. Time spent in the peripheral and centers zones is analyzed, along with rearing behavior. 70% ethanol is used to clean all surfaces between trials.
[…] During the last week of treatment, mice were subjected to behavior testing prior to perfusion on the last day of treatment. All mice received 5 consecutive days of BrdU injection at 150 mg/kg IP immediately prior to treatment start. […]

[3] = tested on: two-month-old C57Bl/6 mice treated with rmCCL11; experiment: Y-maze test in young mice given recombinant mouse CCL11; conditions: 2-month-old mice; rmCCL11 i.p.; Compound 1 30 mg/kg p.o. b.i.d.
Description: A large Y-maze test assesses short-term memory of the familiarity of a specific context. Mice are brought to the experimental room for at least 30 min of acclimation to the experimental room conditions (dim lighting) prior to testing. For the initial training trial, the mouse is placed at the end of one arm of a large Y-maze designated “start arm” (arm length: 15 inches). The third arm of the maze is blocked off, allowing the mouse to explore two of the three arms freely (“start arm” and “familiar arm”) for 5 min. Each arm contains spatial cues. One hour later, the mouse is placed back into the maze in the “start arm” and allowed to explore all three arms with the third arm unblocked (“novel arm”). Movements in and out of each arm are tracked using automated tracking software (CleverSys). Testing is performed under dim lighting, and the apparatus is cleaned with 70% ethanol between trials.
as §1, with “treatment. All mice received 5 consecutive days of BrdU injection at 150 mg/kg IP immediately prior to treatment start.” for “treatment.”

B1: rmCCL11: Recombinant mouse CCL11 (eotaxin-1), injected i.p. to impair behaviour in young mice (protein, UniProt P48298 24-97, looked up)
Eotaxin: HPGSIPTSCCFIMTSKKIPNTLLKSYKRITNNRCTLKAIVFKTRLGKEICADPKKKWVQDATKHLDQKLQTPKP
With B1 the “memory in the Barnes maze” value [1] was “impaired memory in the Barnes maze”, the “anxiety in the Open Field” value [2] was “significantly worsened anxiety” and the “memory in the Y-maze” value [3] was “impaired memory in the Y-maze”.
